Where two headings read alike, the source gives them in different places.
Tests used:
FBF-2 RBD = biological target: T1, FBF-2 RBD (Caenorhabditis elegans, UniProt Q09312); details: reported previously, cited from earlier work
T1 construct: The FBF-2 RBD protein (residue 164-575) was purified as described previously; His6-SUMO (N, cleaved yes); made in house; host or cells: E. coli BL21-CodonPlus (DE3)-RIL (host inferred: b50 says the procedure was otherwise the same as for RBD + CT)
T1 sequence (Q09312 whole entry, looked up): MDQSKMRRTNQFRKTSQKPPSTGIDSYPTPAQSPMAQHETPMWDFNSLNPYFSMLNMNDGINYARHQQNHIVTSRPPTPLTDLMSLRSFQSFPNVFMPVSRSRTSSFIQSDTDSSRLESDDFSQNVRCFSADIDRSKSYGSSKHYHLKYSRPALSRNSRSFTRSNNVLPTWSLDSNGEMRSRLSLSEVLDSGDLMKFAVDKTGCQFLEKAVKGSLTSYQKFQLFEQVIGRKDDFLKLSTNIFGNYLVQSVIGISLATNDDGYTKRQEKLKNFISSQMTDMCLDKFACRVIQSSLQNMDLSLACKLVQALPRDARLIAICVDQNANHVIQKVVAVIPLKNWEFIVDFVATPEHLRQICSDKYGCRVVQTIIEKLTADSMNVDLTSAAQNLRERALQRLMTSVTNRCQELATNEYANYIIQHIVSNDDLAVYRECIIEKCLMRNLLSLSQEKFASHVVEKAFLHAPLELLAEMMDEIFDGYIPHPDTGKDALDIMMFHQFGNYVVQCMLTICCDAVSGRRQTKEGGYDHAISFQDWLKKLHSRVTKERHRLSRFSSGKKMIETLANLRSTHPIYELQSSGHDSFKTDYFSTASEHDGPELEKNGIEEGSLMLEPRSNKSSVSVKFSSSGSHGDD
Description: Given that the core residues of three distinct PIMs—FBF-2 CT, LST-1 A, and LST-1 B—all bind to the same site of FBF-2, we hypothesized that the intramolecular FBF-2 CT binding could compete with LST-1 A and LST-1 B binding. To assess that idea, we investigated how the CT affects the protein interaction affinities of the FBF-2 RBD to LST-1 A and LST-1 B, using isothermal titration calorimetry (ITC, Supplementary Table 3). No RNA was included in these experiments. We first measured the binding affinity of an isolated CT peptide and the FBF-2 RBD (no CT), by titrating the peptide, FBF-2^601–632, ... || Fig. 2 The FBF-2 CT competes with partner proteins for binding to the RBD. Representative isothermal titration calorimetry thermograms (top, differential power [DP] vs time) and corresponding titration curve-fitting graphs (bottom) are shown for interaction between a FBF-2 RBD and FBF-2 CT, c FBF-2 RBD + CT and LST-1 A, d FBF-2 RBD + CT and LST-1 B, e FBF-2 RBD and FBF-2 CT L610A, f FBF-2 RBD + CT L610A and LST-1 A, and g FBF-2 RBD + CT L610A and LST-1 B. Data points on the curve-fitting graphs are shown as open circles. b Previously reported mean Kd from two independent replicates with simila ... || We next compared the protein interaction affinities of LST-1 A or LST-1 B with either FBF-2 RBD + CT or RBD alone (Fig. 2c–g, Supplementary Table 3). For these experiments, we titrated the LST-1 peptide into an ITC cell containing either RBD + CT or RBD.

FBF-2 RBD+CT Loop6A = biological target: T2, FBF-2 RBD+CT Loop6A (Caenorhabditis elegans, UniProt Q09312, D594A/E592A/E597A/E599A/E604A/E605A); assay: ITC, peptide into FBF-2 RBD + CT Loop6A, no RNA; format: binding, C. elegans; details: 20 °C, pH 7.4
T2 construct: A cDNA fragment encoding C. elegans FBF-2 RBD + CT (residues 164-632) was cloned into the pSMT3 vector; His6-SUMO (N, cleaved yes); made in house; host or cells: E. coli BL21-CodonPlus (DE3)-RIL (as for wild type)
Description: Experiments were performed at 20 °C using a MicroCal PEAQ-ITC Automated (Malvern Instruments) with a 200-μL standard cell and a 40-μL titration syringe. FBF-2 and LST-1 variants were prepared in a buffer of 20 mM HEPES pH 7.4, 150 mM NaCl, and 0.5 mM TCEP by gel filtration. LST-1 (100–400 µM) was titrated from the syringe into the cell containing FBF-2 (10–30 µM) in 2 µl aliquots. Experiments were performed in duplicate due to the limitation of the amount of protein needed. Data were analyzed using the MicroCal PEAQ-ITC Analysis Software (version 1.40) provided by the manufacturer with the one-site model (Table S3).
Supplementary Table 3. Protein interaction affinities, stoichiometries, and thermodynamic parameters between FBF-2 CT/LST-1 variants and FBF-2 measured by ITC. Two technical replicates (n=2 independent experiments) were performed for each analysis with similar results, and the values are shown for each replicate. Source data are provided as a Source Data file. […]
RBD+CT LST-1 A none Not detected
RBD FBF-2 CT none Not detected
1 Reported previously 18.

FBF-2 RBD+CT Y479A = biological target: T3, FBF-2 RBD+CT Y479A (Caenorhabditis elegans, UniProt Q09312 164-632, Y479A); assay: EMSA; 50 uM LST-1 B present (Y479A disrupts LST-1 binding, no complex); EMSA: FBF-2 in 20 mM HEPES pH 7.4, 150 mM NaCl, 0.5 mM TCEP mixed 1:1 with 5 nM final RNA in 10 mM HEPES pH 7.4, 0.01% Tween 20, 0.1 mg/ml BSA, 0.1 mg/ml yeast; details: protein: recombinant; tags: none (His6-SUMO removed with Ulp1); label: 3'-Cy5
T3 sequence: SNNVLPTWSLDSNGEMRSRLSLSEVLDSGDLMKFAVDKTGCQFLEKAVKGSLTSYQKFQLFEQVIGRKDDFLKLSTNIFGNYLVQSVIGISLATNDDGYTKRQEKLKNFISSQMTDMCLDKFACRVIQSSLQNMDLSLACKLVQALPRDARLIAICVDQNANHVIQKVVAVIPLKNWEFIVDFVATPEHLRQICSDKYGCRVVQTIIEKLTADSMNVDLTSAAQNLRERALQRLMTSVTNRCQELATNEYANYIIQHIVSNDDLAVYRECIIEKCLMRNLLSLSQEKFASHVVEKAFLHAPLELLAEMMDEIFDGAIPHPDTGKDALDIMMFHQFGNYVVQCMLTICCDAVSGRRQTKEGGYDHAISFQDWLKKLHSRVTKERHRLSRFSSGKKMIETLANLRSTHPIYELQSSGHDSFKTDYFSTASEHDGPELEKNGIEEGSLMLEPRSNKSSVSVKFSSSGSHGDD

T2 sequence (Q09312 164-632 E592A/D594A/E597A/E599A/E604A/E605A): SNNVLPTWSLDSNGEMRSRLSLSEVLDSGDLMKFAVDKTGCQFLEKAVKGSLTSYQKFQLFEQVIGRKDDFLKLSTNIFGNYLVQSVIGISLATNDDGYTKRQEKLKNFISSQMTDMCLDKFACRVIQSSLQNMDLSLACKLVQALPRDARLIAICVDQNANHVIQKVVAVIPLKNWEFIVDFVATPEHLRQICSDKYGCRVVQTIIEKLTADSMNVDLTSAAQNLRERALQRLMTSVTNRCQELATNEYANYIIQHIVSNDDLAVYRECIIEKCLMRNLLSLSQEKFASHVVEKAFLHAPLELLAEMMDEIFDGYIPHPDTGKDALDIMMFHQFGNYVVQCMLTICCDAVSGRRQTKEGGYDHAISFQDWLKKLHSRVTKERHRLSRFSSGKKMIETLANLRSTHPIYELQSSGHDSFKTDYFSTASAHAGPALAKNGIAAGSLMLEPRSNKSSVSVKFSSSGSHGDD

LST-1 B: LST-1 B peptide, residues 67–98, expressed in E. coli (SSSPQQRSGLRSQKLHLTYIEKNKRVRAMIPQ; left off: His6-SUMO, N-terminal, cleaved)
-T∆S (FBF-2 RBD; replicate 1): 7.7 kcal/mol
∆G (FBF-2 RBD; replicate 1): -9.85 kcal/mol
∆H (FBF-2 RBD; replicate 1): -17.5 kcal/mol
-T∆S (FBF-2 RBD; replicate 2): 7.17 kcal/mol
∆G (FBF-2 RBD; replicate 2): -9.87 kcal/mol
∆H (FBF-2 RBD; replicate 2): -17 kcal/mol
-T∆S (FBF-2 RBD+CT Loop6A; replicate 1): 5.07 kcal/mol
∆G (FBF-2 RBD+CT Loop6A; replicate 1): -8.01 kcal/mol
∆H (FBF-2 RBD+CT Loop6A; replicate 1): -13.1 kcal/mol
-T∆S (FBF-2 RBD+CT Loop6A; replicate 2): 3.59 kcal/mol
∆G (FBF-2 RBD+CT Loop6A; replicate 2): -7.91 kcal/mol
∆H (FBF-2 RBD+CT Loop6A; replicate 2): -11.5 kcal/mol

AUCAUGUGCCAUAC (ssRNA) [gld-1 FBEa RNA (EMSA)]
Kd (FBF-2 RBD+CT Y479A): 41 ± 6 nM
